Measured values taken from patent US20220356230A1.
Positions count from the first letter of the chain named.

B1: mAb11004 (antibody, V domains shown)
VH: QVQLVESGGGVVQPGRSLRLSCVASGFTFSIYGMDWVRQAPGKGLEWVAVISYDGSNKYYADSVKGRFTISRDNSKNTLYLQMNSLRPEDTAVYYCAKDREAAADAFDIWGQGTMVTVSS
VL: DIQMTQSPSSVSASVGDRVTITCRASQGISSWLAWYQQKPGKAPKLLIYAASSLHSGVPSRFSGSGSGTDFTLTISSLQPEDFATYYCQQANSFRLTFGGGTKVEIK
B2: mAb11006 (antibody, V domains shown)
VH: EVQLVESGGGLVQPGGSLRLSCAASGFIVSRNYMSWVRQAPGKGLEWVSVIYSGGSTFYADSVKGRFTISRHNSKNTLYLQMNSLKAEDTAVYYCARELRGYFDYWGQGTLVTVSS
VL: DIQLTQSPSFLSASVGDRVTITCWASQGISSYLAWYQQKPGKAPKLLIYAASTLQSGVPSRFSGSGSGTEFTLTISSLQPEDFATYYCQLLNSYPYTFGQGTKLEIK
B3: mAb11008 (antibody, V domains shown)
VH: EVQLVESGGGLVQPGGSLRLSCAASGFTVSSNYMTWVRQAPGKGLEWVSVIYSGGSTFYADSVKGRFTISRHNSENTLYLQMNSLRAEDTAVYYCARDLAAAGTDYWGQGALVTVSS
VL: B2 VL with E81D, L90H, P95L
B4: mAb10998 (antibody, V domains shown)
VH: EVQLVESGGGLVHPGGSLRLSCAASGLTVSSNYMSWVRQAPGKGLEWVSVIYSGGSTYYADSVKGRFTISRHNSKNTLFLQMNSLRAEDTAVYYCARDRPITGTTLDVWGQGTTVTVSS
VL: DIQMTQSPSSLFASVGDRVTITCRASQSISSYLNWYQQKPGKAPKLLIYAASSLQSGVPSRFSGSGSGTDFTLTISSLQPEDFAFYYCQQTYSTPPITFGQGTRLEIK

Biological target: SARS-CoV-2 spike protein receptor binding domain (amino acids Arg319 to Phe541) expressed with the F (SARS-CoV-2)
Assay: not given
Settings: remark: other sources report otherwise

B1 gave an SARS-CoV-2 RBD-hFc Binding to His presented ACE2 (Abs 450 nm) of 0.211 Abs 450 nm.

Biological target: Bt-SARS-CoV-2 Spike Protein (RBD)(R319-F541).hFc (SARS-CoV-2)
Assay: not given
Settings: remark: other sources report otherwise

Point of comparison: B3, Binding signal (MFI) 4110 MFI. Against it:
- B1 — higher, 7620 MFI
- B2 — lower, 3810 MFI
- B4 — lower, 467 MFI

Biological target: Bt-SARS-CoV-2 Spike Protein (RBD)(R319-F541).mFc (SARS-CoV-2)
Assay: not given
Settings: remark: other sources report otherwise

Point of comparison: B3, Binding signal (MFI) 3050 MFI. Against it:
- B1 — higher, 4300 MFI
- B2 — lower, 1400 MFI
- B4 — lower, 2230 MFI

Biological target: SARS-CoV-2 RBD extracellular domain expressed with a C-terminal myc-myc-hexahistidine tag (SARS-COV-2 RBD-MMH) (SARS-CoV-2)
Assay: not given
Settings: remark: other sources report otherwise

Point of comparison: B2, Kd 4.1 nM. Against it:
- B1 — 4-fold higher, 16.6 nM
- B3 — 14-fold higher, 59.4 nM
- B4 — 29-fold higher, 117 nM

Point of comparison: B1, t½ 3.7 min. Against it:
- B2 — 8.5-fold higher, 31.5 min
- B3 — within 1.5-fold, 2.9 min
- B4 — 7.4-fold lower, 0.5 min

Biological target: SARS-CoV-2 RBD extracellular domain expressed with a C-terminal human IgG1 (SARS-COV-2 RBD-hFc) (SARS-CoV-2)
Assay: not given
Settings: remark: other sources report otherwise

Point of comparison: B4, Kd 1.58 nM. Against it:
- B1 — 8.3-fold lower, 0.191 nM
- B2 — lower, < 0.0532 nM
- B3 — 2.2-fold lower, 0.715 nM

Point of comparison: B3, t½ 100 min. Against it:
- B1 — 1.7-fold higher, 174 min
- B2 — higher, > 1160 min
- B4 — 4.5-fold lower, 22.2 min

Biological target: Human SARS Coronavirus Spike S1 Subunit Protein (His Tag) (Sino 40150-V08B1) (Human SARS Coronavirus), P59594
Assay: Luminex bead assay, antigen on microspheres, antibody supernatant
Settings: remark: other sources report otherwise

Point of comparison: B4, Binding signal (MFI) 16 MFI. Against it:
- B1 — higher, 33 MFI
- B2 — higher, 339 MFI
- B3 — higher, 31 MFI

Biological target: Human SARS Coronavirus Spike Protein (Receptor Binding Domain) rabbit Fc (Sino 40150-V31B2) (Human SARS Coronavirus), P59594
Assay: as above
Settings: remark: other sources report otherwise

Point of comparison: B4, Binding signal (MFI) 29 MFI. Against it:
- B1 — higher, 5520 MFI
- B2 — higher, 615 MFI
- B3 — higher, 120 MFI

Biological target: MERS-CoV (NCoV/Novel coronavirus) Spike Protein fragment (RBD, aa 367-606, His Tag) (Sino 40071-V08B1) (MERS-CoV), K9N5Q8
Assay: as above
Settings: remark: other sources report otherwise

Point of comparison: B4, Binding signal (MFI) 24 MFI. Against it:
- B1 — higher, 26 MFI
- B2 — lower, 15 MFI
- B3 — lower, 20 MFI

Biological target: MERS-CoV (NCoV/Novel coronavirus) Spike Protein S1 Protein (aa 1-725, His Tag) (Sino 40069-V08B1) (MERS-CoV), K9N5Q8
Assay: as above
Settings: remark: other sources report otherwise

Point of comparison: B2, Binding signal (MFI) 18 MFI. Against it:
- B1 — lower, 17 MFI
- B3 — the same, 18 MFI
- B4 — higher, 19 MFI

Biological target: Human SARS Coronavirus Spike Protein (Receptor Binding Domain, His Tag) (Sino 40150-V08B2) (Human SARS Coronavirus), P59594
Assay: as above
Settings: remark: other sources report otherwise

Point of comparison: B1, Binding signal (MFI) 740 MFI. Against it:
- B2 — lower, 667 MFI
- B3 — lower, 174 MFI
- B4 — lower, 37 MFI

Biological target: SARS-CoV-2 Spike Protein (RBD)(R319-F541).mFc (SARS-CoV-2)
Assay: as above
Settings: remark: other sources report otherwise

Point of comparison: B4, Binding signal (MFI) 2230 MFI. Against it:
- B1 — higher, 4580 MFI
- B2 — higher, 2870 MFI
- B3 — higher, 4260 MFI

Biological target: SARS-CoV-2 Spike Protein (RBD)(R319-F541).hFc (SARS-CoV-2)
Assay: as above
Settings: remark: other sources report otherwise

Point of comparison: B4, Binding signal (MFI) 1740 MFI. Against it:
- B1 — higher, 4880 MFI
- B2 — higher, 3980 MFI
- B3 — higher, 2570 MFI
